Here are results for one molecule from article PMC2239301.

This test deals with Smy2p fused to the LexA-DNA binding domain (S. cerevisiae). Description: two-hybrid.
Smy2p fused to the LexA-DNA binding domain (S. cerevisiae), sequence (P32909 whole entry, the tested form may be a part): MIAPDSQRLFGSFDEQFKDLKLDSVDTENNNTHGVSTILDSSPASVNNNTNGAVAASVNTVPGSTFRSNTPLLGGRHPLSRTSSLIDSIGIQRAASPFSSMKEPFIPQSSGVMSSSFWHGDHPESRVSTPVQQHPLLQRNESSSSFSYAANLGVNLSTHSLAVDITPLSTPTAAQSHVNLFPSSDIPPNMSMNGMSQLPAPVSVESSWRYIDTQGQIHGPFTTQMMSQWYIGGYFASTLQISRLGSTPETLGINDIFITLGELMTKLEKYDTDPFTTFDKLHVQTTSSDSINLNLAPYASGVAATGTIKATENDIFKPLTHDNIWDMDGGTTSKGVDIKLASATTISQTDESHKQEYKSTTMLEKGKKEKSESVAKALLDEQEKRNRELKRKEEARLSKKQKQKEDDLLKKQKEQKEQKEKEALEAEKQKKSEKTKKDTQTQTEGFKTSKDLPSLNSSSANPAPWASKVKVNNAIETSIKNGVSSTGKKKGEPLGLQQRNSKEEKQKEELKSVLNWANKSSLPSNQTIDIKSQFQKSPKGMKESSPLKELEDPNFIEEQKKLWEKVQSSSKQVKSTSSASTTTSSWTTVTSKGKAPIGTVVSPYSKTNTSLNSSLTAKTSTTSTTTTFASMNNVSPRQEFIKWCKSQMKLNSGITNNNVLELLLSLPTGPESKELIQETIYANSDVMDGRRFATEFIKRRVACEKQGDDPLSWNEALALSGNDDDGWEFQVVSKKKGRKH

B1: Sec23p connected to the B42 acidic activation domain (natural protein)
chain: MDFETNEDINGVRFTWNVFPSTRSDANSNVVPVGCLYTPLKEYDELNVAPYNPVVCSGPHCKSILNPYCVIDPRNSSWSCPICNSRNHLPPQYTNLSQENMPLELQSTTIEYITNKPVTVPPIFFFVVDLTSETENLDSLKESIITSLSLLPPNALIGLITYGNVVQLHDLSSETIDRCNVFRGDREYQLEALTEMLTGQKPTGPGGAASHLPNAMNKVTPFSLNRFFLPLEQVEFKLNQLLENLSPDQWSVPAGHRPLRATGSALNIASLLLQGCYKNIPARIILFASGPGTVAPGLIVNSELKDPLRSHHDIDSDHAQHYKKACKFYNQIAQRVAANGHTVDIFAGCYDQIGMSEMKQLTDSTGGVLLLTDAFSTAIFKQSYLRLFAKDEEGYLKMAFNGNMAVKTSKDLKVQGLIGHASAVKKTDANNISESEIGIGATSTWKMASLSPYHSYAIFFEIANTAANSNPMMSAPGSADRPHLAYTQFITTYQHSSGTNRIRVTTVANQLLPFGTPAIAASFDQEAAAVLMARIAVHKAETDDGADVIRWLDRTLIKLCQKYADYNKDDPQSFRLAPNFSLYPQFTYYLRRSQFLSVFNNSPDETAFYRHIFTREDTTNSLIMIQPTLTSFSMEDDPQPVLLDSISVKPNTILLLDTFFFILIYHGEQIAQWRKAGYQDDPQYADFKALLEEPKLEAAELLVDRFPLPRFIDTEAGGSQARFLLSKLNPSDNYQDMARGGSTIVLTDDVSLQNFMTHLQQVAVSGQA
B1: the β-galactosidase activity worked out at 26 units.
